Test results reported in patent US20240269104A1, “METHOD FOR TREATING PARKINSON'S DISEASE” (Olatec Therapeutics, Inc., priority 2021, published 2024).

Columns and labels:
[1] = in vivo; cited from earlier work
[2] = system: MPTP-injected-mouse model of PD; assay: accelerating rotarod test after MPTP-acute administration; format: in vivo, C56BL/J mice; details: anakinra 20 mg/kg intraperitoneal 30 minutes before MPTP; day 3
Method: MPTP (Sigma-Aldrich, St. Louis, MO) can be administered at two dose regimens: acute and sub-acute. For the acute regimen, MPTP was administered intraperitoneally (i.p.) four times in one day. Administrations were performed every two hours over an eight-hour period. For the subacute regimen, mice received a single i.p. administration of MPTP per day for five consecutive days. A 20 mg/kg free-base MPTP dose was used for every dose in both models. Sterile saline was used as the vehicle. Control mice were injected with saline solution using the same administration protocol and were defined as sham. Mice were sacrificed at different days after the first injection of MPTP. We used the acute protocol in C56BL/J mice to study dopamine neurodegeneration, inflammation, and motor deficits, whereas the subacute model was used to evaluate α-synuclein aggregation in the following examples. […]
The accelerating rotarod (Ugo Basile, Gemonio, ITALY) was used to evaluate locomotor function in mice subjected to the MPTP-acute administration. An accelerating program was selected to detect locomotor impairments associated to MPTP (Keshet et al, J Comp Neurol 504:690-701, 2007; Rui et al., Int J Neuropsychopharmacol., 2020). We used a rotarod device with a cylinder rod of three centimeters in diameter. The mice underwent a training period of three consecutive days prior to MPTP administration. In each training session, mice were subjected to run at four constant speeds (10 rpm, 20 rpm, 30 rpm, and 40 rpm) for 150 seconds at each speed. If mice fell during that time, they were put back in the rotarod immediately. On the testing day, we used an increased-speed program. Mice were placed on the rotarod device for 150 seconds at 30 rpm as warm up. Immediately after 150 seconds, the accelerating session started, and the speed increased from 30 rpm to 70 rpm for 500 seconds. Time to fall was recorded. Accelerating sessions were repeated three times with a resting interval of five minutes between sessions. Average time to fall per mouse was calculated and used as final measurement.
We then evaluated the effect of dapansutrile. To avoid overloading animals with fluid (which can lead to fatal heart failure), dapansutrile was administered through oral gavage at 200 mg/kg in water. Dapansutrile was given 30 minutes before the first injection of MPTP. Mice treated with saline were used as control. We also included a sham-group that received saline through intraperitoneal injections instead of MPTP. […]

anakinra: Interleukin-1 receptor antagonist (IL-1Ra), 17.3 kDa; differs from native human IL-1Ra by an added amino-terminal methionine and absence of glycosylation [reference compound]
CSF penetration [1]: 0.2-0.3% | rotarod latency to fall versus control mice treated with saline [2]: the same latency to fall
